Measurements: article PMC5681996

What was measured:
TDP-43 WT [1] = target: T1, TDP-43 WT (UniProt Q13148 1-414); test: CD
TDP-43 WT [2] = target: T1, TDP-43 WT; test: EMSA
TDP-43 WT [3] = target: T1, TDP-43 WT; test: CD; remark: listed apart in the source

T1 sequence (Q13148 whole entry): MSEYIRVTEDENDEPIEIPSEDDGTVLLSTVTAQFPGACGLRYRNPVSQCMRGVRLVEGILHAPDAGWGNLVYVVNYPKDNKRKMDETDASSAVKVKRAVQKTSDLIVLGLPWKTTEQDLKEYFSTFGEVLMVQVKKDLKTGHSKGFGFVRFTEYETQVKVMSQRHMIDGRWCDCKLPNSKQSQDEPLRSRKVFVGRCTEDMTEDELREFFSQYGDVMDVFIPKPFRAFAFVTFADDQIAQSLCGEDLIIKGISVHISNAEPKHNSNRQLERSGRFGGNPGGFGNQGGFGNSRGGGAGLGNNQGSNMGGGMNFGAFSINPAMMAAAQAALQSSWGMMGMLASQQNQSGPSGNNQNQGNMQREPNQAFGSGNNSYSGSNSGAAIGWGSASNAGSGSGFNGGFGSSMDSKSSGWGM

Binder | binding result (TDP-43 WT [2]) | further results
UGUGUGUG (ssRNA) [(UG)4] | – | binding result (TDP-43 WT [1]): binds
UGGAAUGGAAUGGAAUGGAAUGGAAUGGAAUGGAAUGGAA (ssRNA) [(UGGAA)8] | binds | –
UGUGUGUGUGUGUGUG (ssRNA) [(UG)8] | binds | –
UGGAAUGGAAUGGAAUGGAA (ssRNA) [(UGGAA)4] | – | binding result (TDP-43 WT [3]): binds
